Assay [1] concerns the target T1, recombinant GPC2-hFc fusion protein (human, UniProt Q8N158 24-553).
T1 construct: range 24-553; Made in 293T cells with an IL-2 secretion signal (not part of the secreted protein); biotinylated for the Octet assay; also called GPC2 protein; recombinant human GPC2; not shown: human IgG Fc (hFc) at the C terminus
T1 sequence (looked up): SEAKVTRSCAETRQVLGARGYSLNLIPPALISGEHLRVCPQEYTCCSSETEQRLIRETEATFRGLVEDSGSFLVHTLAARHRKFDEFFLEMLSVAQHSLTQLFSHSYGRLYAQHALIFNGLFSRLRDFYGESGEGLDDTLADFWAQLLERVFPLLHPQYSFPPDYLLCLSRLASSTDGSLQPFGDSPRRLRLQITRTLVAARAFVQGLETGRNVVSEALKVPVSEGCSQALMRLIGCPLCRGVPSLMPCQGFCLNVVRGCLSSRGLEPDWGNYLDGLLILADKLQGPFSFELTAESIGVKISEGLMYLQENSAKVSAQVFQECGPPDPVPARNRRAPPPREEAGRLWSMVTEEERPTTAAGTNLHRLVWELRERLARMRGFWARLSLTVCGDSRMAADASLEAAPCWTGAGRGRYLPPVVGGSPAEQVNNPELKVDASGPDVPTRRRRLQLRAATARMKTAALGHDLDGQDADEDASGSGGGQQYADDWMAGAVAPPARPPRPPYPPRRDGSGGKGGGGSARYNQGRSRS
In words: Octet RED96 BLI, biotinylated GPC2-hFc on streptavidin biosensors, 30 °C.

The target in assay [2] is T1, recombinant GPC2-hFc fusion protein. Briefly: Octet RED96 biolayer interferometry, biotinylated GPC2-hFc on streptavidin biosensors, LH7 at 1000, 500 and 100 nM.
Description: Briefly, all experiments were performed at 30° C. and reagents were prepared in 0.1% BSA, 0.1% Tween20 PBS, pH 7.4 buffer. […] Data analysis was performed using the Fort\tilde{e}Bio analysis software provided with the instrument.
The target is the same in assay [3]. In words: monoclonal phage ELISA, coated GPC2-hFc vs BSA.
Description: (§1) Both plate and phage were blocked with 3% skim milk in PBS/0.05% Tween-20 for 1 hour at room temperature. Then pre-blocked phage supernatant was added to the plate. Binding was detected by HRP-conjugated mouse anti-M13 antibody (GE Healthcare).
A further assay addresses T2, recombinant mouse GPC2 (mouse, UniProt Q8BKV1 22-556, limits assumed).
T2 sequence (looked up): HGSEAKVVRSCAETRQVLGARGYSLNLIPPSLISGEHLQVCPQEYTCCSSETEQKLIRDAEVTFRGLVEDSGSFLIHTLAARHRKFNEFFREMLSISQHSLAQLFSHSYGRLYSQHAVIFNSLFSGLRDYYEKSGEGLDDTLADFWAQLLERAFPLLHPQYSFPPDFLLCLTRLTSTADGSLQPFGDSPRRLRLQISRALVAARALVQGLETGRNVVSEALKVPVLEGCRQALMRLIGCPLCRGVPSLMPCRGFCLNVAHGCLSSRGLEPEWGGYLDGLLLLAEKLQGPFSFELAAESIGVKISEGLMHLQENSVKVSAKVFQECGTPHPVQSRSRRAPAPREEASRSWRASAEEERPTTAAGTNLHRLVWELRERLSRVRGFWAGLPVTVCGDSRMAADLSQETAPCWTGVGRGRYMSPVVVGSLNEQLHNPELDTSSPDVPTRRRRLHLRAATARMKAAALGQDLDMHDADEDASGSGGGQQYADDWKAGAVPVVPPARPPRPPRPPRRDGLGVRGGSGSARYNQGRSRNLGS
In words: monoclonal phage ELISA on recombinant glypicans.

The next assay has as its target T3, recombinant human GPC1 (human, UniProt P35052 24-530, limits assumed).
T3 sequence (looked up): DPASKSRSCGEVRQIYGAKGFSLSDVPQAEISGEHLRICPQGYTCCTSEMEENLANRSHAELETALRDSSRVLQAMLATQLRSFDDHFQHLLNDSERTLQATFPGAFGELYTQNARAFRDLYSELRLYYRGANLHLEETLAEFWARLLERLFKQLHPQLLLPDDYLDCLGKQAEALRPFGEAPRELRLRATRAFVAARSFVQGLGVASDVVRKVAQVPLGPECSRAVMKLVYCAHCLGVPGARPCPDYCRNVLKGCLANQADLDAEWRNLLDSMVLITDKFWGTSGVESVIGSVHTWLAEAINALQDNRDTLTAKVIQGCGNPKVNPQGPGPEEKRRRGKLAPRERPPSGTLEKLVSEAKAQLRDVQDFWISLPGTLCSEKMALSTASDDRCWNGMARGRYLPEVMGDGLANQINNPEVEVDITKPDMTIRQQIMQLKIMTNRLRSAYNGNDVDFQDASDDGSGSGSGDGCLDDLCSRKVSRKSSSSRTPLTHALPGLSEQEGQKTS
Briefly: monoclonal phage ELISA on recombinant glypicans.

For a further assay, the target named is recombinant human GPC3 (human, UniProt P51654 25-559, limits assumed). In words: monoclonal phage ELISA on recombinant glypicans.
Sequence of recombinant human GPC3 (P51654 25-559 limits assumed): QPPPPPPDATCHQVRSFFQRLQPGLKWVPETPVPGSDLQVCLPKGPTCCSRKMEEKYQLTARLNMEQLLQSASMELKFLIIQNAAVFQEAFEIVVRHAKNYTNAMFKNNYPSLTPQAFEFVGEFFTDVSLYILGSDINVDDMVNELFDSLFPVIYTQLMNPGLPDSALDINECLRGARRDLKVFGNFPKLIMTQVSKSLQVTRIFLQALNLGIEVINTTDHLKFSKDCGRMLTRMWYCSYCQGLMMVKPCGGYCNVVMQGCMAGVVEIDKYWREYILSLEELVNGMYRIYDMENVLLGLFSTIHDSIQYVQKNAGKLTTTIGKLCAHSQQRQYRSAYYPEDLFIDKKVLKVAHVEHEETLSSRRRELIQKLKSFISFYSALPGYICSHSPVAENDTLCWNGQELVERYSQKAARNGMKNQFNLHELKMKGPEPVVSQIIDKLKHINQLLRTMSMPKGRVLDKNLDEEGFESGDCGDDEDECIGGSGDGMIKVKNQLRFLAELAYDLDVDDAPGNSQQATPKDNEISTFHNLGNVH
In assay [4] the target is T1, recombinant GPC2-hFc fusion protein. In words: ELISA, coated GPC2-hFc, detection with anti-Pseudomonas exotoxin A antibody.
Description: Then a series of diluted immunotoxins were added to each well. Anti-Pseudomonas exotoxin A antibody (Sigma-Aldrich) and HRP-conjugated secondary antibody (Jackson Immunoresearch) were used to detect binding. EC₅₀ values were determined by Prism 6.0 software (GraphPad).
For assay [5] the target is unchanged. In words: ELISA on coated GPC2-hFc, detection with anti-Pseudomonas exotoxin A antibody and HRP secondary.

Description for recombinant human GPC1: as §1
Description for recombinant human GPC3: as §1
Description for recombinant mouse GPC2: as §1

B1: LH7-Fc fusion protein (Fc fusion)
chain: QVQLVQSGGGLVQPGGSLRLSCAASDFYFYDYEMSWVRQAPGKGLEWIGTVSYSGSTYYNPSLKSRVTISRDNSKNTLYLQMNTLRAEDTAMYYCARGYSYDDSRYFDYWGQGTLVTVSS
notes: Soluble LH7 as used in Octet, flow cytometry and HEK293 Supertopflash assays; also called LH7 antibody; LH7 single domain antibody; not shown: Fc: antibodies were fused with either human Fc (hFc) or mouse IgG Fc (mFc); which one was used in this assay, its subcla
In the case of B1, in assay [1], the Kd is 9.8 nM. In assay [2], the off-rate constant (koff) came to 0.00052 s⁻¹ and the kon turned out to be 53100 M⁻¹ s⁻¹.

B2: VH single domain antibody LH7 (phage clone) (VHH)
VHH: QVQLVQSGGGLVQPGGSLRLSCAASDFYFYDYEMSWVRQAPGKGLEWIGTVSYSGSTYYNPSLKSRVTISRDNSKNTLYLQMNTLRAEDTAMYYCARGYSYDDSRYFDYWGQGTLVTVSS
notes: Human VH single domain
For the molecule B2, the “fold OD450 nm on GPC2-hFc over BSA” value in assay [3] is ≥ 5 fold. Moreover, the binding result with recombinant mouse GPC2, in the assay with recombinant human GPC1 and in the assay with recombinant human GPC3 was “no binding” in each case.

B3: LH7-PE38 monomeric immunotoxin (other)
VH: QVQLVQSGGGLVQPGGSLRLSCAASDFYFYDYEMSWVRQAPGKGLEWIGTVSYSGSTYYNPSLKSRVTISRDNSKNTLYLQMNTLRAEDTAMYYCARGYSYDDSRYFDYWGQGTLVTVSS
Regarding B3, in assay [4], the half-maximal effective concentration (EC50) was found to be 18 nM. Besides, in assay [5], the EC50 is 18.4 nM and the 50% effective concentration (EC50 (read off the curve)) is ~1 µg/mL.

B4: VH single domain antibody LH4 (phage clone) (VHH)
VHH: QVQLVQSGGGLVQPGGSLRLSCAASSFYFDDYEMSWVRQAPGKALEWIGRIYTSGSTNYNPSLKSRVTISRDNSKNTLYLQMNTLRAEDTATYYCARGYCSGGSCYFDYWGQGTLVTVSS
notes: Human VH single domain
On to B4, for which the “fold OD450 nm on GPC2-hFc over BSA” value in assay [3] is ≥ 5 fold. The binding result with recombinant mouse GPC2 is listed as “binds”; with recombinant human GPC1, “no binding”; with recombinant human GPC3 it was “no binding”.

B5: LH4-PE38 (other)
VH: QVQLVQSGGGLVQPGGSLRLSCAASSFYFDDYEMSWVRQAPGKALEWIGRIYTSGSTNYNPSLKSRVTISRDNSKNTLYLQMNTLRAEDTATYYCARGYCSGGSCYFDYWGQGTLVTVSS
notes: One of the three immunotoxins of group m11; also called LH4-PE38 immunotoxin
In the case of B5, in assay [5], the concentration for a half-maximal effect (EC50) was 43.9 nM.

B6: VH single domain antibody LH6 (phage clone) (VHH)
VHH: QVQLVQSGGGLVQPGGSLRLSCAASDFYFDDYEMSWVRQAPGKGLEWVSTISGSGGGTYYADSVKGRFTISRDNSKNTLYLQMNTLRAEDTATYYCARGYSYDDSRYFDYWGQGTLVTVSS
notes: Human VH single domain
With B6, the “fold OD450 nm on GPC2-hFc over BSA” value in assay [3] is ≥ 5 fold. In addition, the figures for the binding result with recombinant mouse GPC2, with recombinant human GPC1 and with recombinant human GPC3 were “binds”, “no binding” and “no binding”, respectively.

B7: VH single domain antibody LH2 (phage clone) (VHH)
VHH: QVQLVQSGGGLVQPGGSLRLSCAASDFYFYSYEVSWVRQAPGKALEWIGYIYYSGSTTYNPSLKSRVTISRDNSKNTLYLQMNTLRAEDTAIYYCAVRDNWNDVDYWGQGTLVTVSS
notes: Human VH single domain
For the molecule B7, the “fold OD450 nm on GPC2-hFc over BSA” value in assay [3] was ≥ 5 fold. In addition, the binding result in the assay with recombinant mouse GPC2, with recombinant human GPC1 and in the assay with recombinant human GPC3 was “no binding” each time.

B8: LH1-PE38 (other)
VH: QVQLVQSGGGLVQPGGSLRLSCAASDFDFAAYEMSWVRQAPGKGLEWIGEINHSGSTTYNPSLKSRVTISRDNSKNTLYLQMNTLRAEDTAVYYCATAVHYYDSSGYYHDAFDIWGQGTLVTVSS
notes: One of the three immunotoxins of group m11; also called LH1-PE38 immunotoxin
As to B8, in assay [5], the EC50 is 4.55 nM and the “EC50 (read off the curve)” value was ~0.2 µg/mL.

B9: VH single domain antibody LH1 (phage clone) (VHH)
VHH: QVQLVQSGGGLVQPGGSLRLSCAASDFDFAAYEMSWVRQAPGKGLEWIGEINHSGSTTYNPSLKSRVTISRDNSKNTLYLQMNTLRAEDTAVYYCATAVHYYDSSGYYHDAFDIWGQGTLVTVSS
notes: Human VH single domain (not camelid)
With B9, the “fold OD450 nm on GPC2-hFc over BSA” value in assay [3] is ≥ 5 fold. Besides, the binding result in the assay with recombinant mouse GPC2, in the assay with recombinant human GPC1 and with recombinant human GPC3 was “no binding” each time.

B10: VH single domain antibody LH3 (phage clone) (VHH)
VHH: QVQLVQSGGGLVQPGGSLRLSCAASSFSFADYEMSWVRQAPGKALEWIGRIYTSGSTNYNPSLKSRVTISRDNSKNTLYLQMNTLRAEDTATYYCARGYSGYDGSHYFDYWGQGTLVTVSS
notes: Human VH single domain
On to B10, for which the “fold OD450 nm on GPC2-hFc over BSA” value in assay [3] is ≥ 5 fold. The binding result with recombinant mouse GPC2 and in the assay with recombinant human GPC1 was “binds” throughout.

The values are drawn from patent US20200216558A1 (US Dept. of Health and Human Services, published 2020).
